The chains are these.
B2: bMERB_(V978A_V985A) (domain or fragment)
chain: KEEEMKRFCKAQTIQRRLNEIEAALRELEAEGVKLELALRRQSSSPEQQKKLWVGQLLQLADKKNSLAAEEAELMITVQELNLEEKQWQLDQELRGYMNREENLKTAADRQAEDQVLRKLVDLVNQRDALIRFQEERRLSELALGTGAQG
B3: Rab8a_(1-176) (natural protein)
chain: MAKTYDYLFKLLLIGDSGVGKTCVLFRFSEDAFNSTFISTIGIDFKIRTIELDGKRIKLQIWDTAGQERFRTITTAYYRGAMGIMLVYDITNEKSFDNIRNWIRNIEEHASADVEKMILGNKCDVNDKRQVSKERGEKLALDYGIKFMETSAKANINVENAFFTLARDIKAKMDKK

Assay [1] concerns the target T1, Mical1 MO-CH-LIM (residues 1-781) (human, UniProt Q8TDZ2 1-781).
T1 sequence: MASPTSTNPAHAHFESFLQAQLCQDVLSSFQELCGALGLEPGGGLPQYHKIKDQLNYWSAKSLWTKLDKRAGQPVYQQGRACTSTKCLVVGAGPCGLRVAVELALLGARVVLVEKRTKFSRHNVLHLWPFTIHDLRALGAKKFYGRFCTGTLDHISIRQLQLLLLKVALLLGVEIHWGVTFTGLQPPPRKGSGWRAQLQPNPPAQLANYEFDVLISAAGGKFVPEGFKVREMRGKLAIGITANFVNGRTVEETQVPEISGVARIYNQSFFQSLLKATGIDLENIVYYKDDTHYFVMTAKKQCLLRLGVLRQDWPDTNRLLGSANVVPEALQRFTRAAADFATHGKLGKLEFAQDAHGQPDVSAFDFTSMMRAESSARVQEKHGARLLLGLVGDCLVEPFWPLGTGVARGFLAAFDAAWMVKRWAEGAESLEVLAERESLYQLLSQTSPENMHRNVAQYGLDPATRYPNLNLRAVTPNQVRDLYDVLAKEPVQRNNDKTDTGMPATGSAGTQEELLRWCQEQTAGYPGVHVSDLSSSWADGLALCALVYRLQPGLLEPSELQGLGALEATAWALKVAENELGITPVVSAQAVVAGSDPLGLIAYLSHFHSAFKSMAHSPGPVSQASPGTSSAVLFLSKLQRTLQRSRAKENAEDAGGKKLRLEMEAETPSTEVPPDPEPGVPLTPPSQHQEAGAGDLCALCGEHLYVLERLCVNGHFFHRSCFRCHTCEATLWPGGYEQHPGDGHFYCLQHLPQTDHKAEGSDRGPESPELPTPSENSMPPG
Briefly: ITC.

The target in assay [2] is T2, Rab15_(1-176) (human, UniProt P59190 1-176).
T2 sequence: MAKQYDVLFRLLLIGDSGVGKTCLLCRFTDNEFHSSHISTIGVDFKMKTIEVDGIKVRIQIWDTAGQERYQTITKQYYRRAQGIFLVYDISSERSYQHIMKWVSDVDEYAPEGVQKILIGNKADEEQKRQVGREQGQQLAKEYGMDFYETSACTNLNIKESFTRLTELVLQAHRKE
Briefly: ITC. (In ITC the heat of successive injections is recorded.)

The target in assay [3] is T3, Rab10_(1-175) (human, UniProt P61026 1-175).
T3 sequence: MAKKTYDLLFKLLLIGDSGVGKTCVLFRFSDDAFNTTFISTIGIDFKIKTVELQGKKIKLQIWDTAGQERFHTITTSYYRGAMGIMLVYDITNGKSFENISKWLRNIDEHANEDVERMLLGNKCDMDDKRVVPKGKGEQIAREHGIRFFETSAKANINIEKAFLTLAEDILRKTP
Briefly: ITC.

Assay [4] has as its target B3. Briefly: ITC.
Assay [5] has as its target T2, Rab15_(1-176). Briefly: SEC. For orientation: In gel filtration, larger molecules generally elute earlier.
In another assay the target is T4, Rab13_(1-176) (human, UniProt P51153 1-176).
T4 sequence: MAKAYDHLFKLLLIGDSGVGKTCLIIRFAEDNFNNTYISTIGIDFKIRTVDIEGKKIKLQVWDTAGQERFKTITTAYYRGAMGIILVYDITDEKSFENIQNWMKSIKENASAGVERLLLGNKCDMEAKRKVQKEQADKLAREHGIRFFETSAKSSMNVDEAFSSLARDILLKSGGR
Briefly: SEC.

Assay [6] concerns the target T3, Rab10_(1-175). Briefly: SEC.
Assay [7] has as its target B3. Briefly: SEC.
In another assay the target is T5, full-length Mical1 (human, UniProt Q8TDZ2 1-1067).
T5 sequence: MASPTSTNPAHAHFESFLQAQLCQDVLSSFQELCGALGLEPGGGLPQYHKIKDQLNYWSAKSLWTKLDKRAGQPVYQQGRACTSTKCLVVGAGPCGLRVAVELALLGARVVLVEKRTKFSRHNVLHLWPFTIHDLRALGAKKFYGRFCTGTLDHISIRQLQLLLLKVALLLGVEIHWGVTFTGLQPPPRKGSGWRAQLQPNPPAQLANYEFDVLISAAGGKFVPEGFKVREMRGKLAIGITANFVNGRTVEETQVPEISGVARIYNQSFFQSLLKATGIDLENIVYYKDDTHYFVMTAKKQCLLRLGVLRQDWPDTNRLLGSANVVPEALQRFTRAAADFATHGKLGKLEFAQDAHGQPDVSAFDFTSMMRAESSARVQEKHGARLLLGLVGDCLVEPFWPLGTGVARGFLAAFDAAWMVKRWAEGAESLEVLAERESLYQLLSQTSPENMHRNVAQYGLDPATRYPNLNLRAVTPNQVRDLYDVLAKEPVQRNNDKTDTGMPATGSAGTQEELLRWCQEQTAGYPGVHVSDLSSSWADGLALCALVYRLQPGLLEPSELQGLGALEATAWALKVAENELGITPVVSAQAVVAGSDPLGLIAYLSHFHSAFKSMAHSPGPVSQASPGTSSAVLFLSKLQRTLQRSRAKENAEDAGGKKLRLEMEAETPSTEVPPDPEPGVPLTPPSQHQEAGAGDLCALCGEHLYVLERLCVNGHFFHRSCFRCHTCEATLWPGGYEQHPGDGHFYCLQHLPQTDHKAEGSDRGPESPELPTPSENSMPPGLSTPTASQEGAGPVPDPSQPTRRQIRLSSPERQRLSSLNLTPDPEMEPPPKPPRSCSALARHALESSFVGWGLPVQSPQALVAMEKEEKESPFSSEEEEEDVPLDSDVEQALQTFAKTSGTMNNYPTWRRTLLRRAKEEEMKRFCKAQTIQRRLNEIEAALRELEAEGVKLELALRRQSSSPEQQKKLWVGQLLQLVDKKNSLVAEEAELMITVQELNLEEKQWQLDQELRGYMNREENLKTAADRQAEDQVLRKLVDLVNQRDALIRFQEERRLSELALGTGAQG
Briefly: ITC.

In the assay “bMERB_(V978A_V985A)” the target is B2. Briefly: ITC.
The target of a further assay is T6, bMERB_(L1047A_F1050A) (human, UniProt Q8TDZ2 918-1067, L1047A | F1050A).
T6 sequence: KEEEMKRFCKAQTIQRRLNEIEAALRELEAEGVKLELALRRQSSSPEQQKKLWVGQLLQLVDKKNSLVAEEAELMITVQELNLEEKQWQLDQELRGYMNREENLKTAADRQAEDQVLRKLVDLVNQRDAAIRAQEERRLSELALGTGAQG
Briefly: ITC.

In assay [8] the target is T7, Mical1 bMERB domain (residues 918-1067) (human, UniProt Q8TDZ2 918-1067).
T7 sequence: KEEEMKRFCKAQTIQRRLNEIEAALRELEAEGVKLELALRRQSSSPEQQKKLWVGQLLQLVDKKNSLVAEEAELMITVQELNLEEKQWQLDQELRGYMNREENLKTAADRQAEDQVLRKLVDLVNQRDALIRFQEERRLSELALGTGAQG
Briefly: ITC.

The target in the next assay is T8, bMERB_(M992A_I993A) (human, UniProt Q8TDZ2 918-1067, M992A | I993A).
T8 sequence: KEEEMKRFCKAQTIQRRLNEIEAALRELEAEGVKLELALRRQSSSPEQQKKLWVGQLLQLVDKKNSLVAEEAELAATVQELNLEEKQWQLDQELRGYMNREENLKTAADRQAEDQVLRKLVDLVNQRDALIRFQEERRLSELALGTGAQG
Briefly: ITC.

B1: bMERB_(S960D) (domain or fragment)
chain: KEEEMKRFCKAQTIQRRLNEIEAALRELEAEGVKLELALRRQDSSPEQQKKLWVGQLLQLVDKKNSLVAEEAELMITVQELNLEEKQWQLDQELRGYMNREENLKTAADRQAEDQVLRKLVDLVNQRDALIRFQEERRLSELALGTGAQG
Turning to B1, the binding result (in [1]; with Rab15_(1-176) [2]; in the assay with Rab10_(1-175) [3]; with Rab8a_(1-176) [4]) was “binds” throughout.

With B2, the binding result with Rab15_(1-176) [5], in the assay with Rab13_(1-176), with Rab10_(1-175) [6] and with Rab8a_(1-176) [7] was “binds” each time.

Regarding B3, the results for the “stoichiometry N” value (with full-length Mical1; in the assay with bMERB_(V978A_V985A); in assay [8]) were 2, 1 and 2, respectively. Further, in the assay with bMERB_(L1047A_F1050A), the “fold decrease in C-terminal (Ct-RBS2) Rab8 binding against wild-type bMERB” value is over 20 fold. The “fold decrease in N-terminal (Nt-RBS1) Rab binding against wild-type bMERB” value with bMERB_(L1047A_F1050A) is 10 fold; in the assay with bMERB_(M992A_I993A) it was over 30 fold.

(Values after article doi:10.1101/2024.06.17.599268 (bioRxiv, 2024).)
